From article PMC4041212

Legend:
[1] = target: BRCA1 (UniProt P38398); assay: reverse co-IP; conditions: reference: wild type EXO1; sites S639,T732,S815,T824
[2] = target: BRCA1 (UniProt P38398); assay: anti-V5 co-IP, BRCA1 blot; conditions: reference: wild type V5-EXO1; sites S639,T732,S815,T824

- binding against the reference [1]: weaker
- binding against the reference [2]: weaker
Substance: EXO1 (from UniProt Q9UQ84) 4A-EXO1
